Results reported in article PMC8154232.

Experiments:
p50-NTD = p50-NTD (mouse, UniProt P25799 39-245); assay: NMR
p50-RHR homodimer = p50-RHR homodimer (mouse, UniProt P25799 39-363); assay: NMR
Chain of p50-RHR homodimer (P25799 39-363): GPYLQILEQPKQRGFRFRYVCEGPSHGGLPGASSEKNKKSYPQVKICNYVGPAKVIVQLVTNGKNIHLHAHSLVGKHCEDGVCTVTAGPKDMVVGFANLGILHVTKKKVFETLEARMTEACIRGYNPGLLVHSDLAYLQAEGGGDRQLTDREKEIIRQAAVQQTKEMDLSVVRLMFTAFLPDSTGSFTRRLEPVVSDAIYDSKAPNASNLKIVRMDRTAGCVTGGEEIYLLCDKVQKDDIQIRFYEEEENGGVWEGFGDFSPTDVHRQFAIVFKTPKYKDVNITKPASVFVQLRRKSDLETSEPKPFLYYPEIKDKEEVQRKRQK

Chain of p50-NTD (P25799 39-245): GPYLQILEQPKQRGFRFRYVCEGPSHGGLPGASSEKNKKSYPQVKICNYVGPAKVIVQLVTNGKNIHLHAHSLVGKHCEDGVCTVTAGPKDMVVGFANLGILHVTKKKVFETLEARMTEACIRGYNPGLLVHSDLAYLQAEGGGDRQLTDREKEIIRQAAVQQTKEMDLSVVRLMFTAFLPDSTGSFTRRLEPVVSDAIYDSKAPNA

B1: half-kB (18-mer) (dsDNA)
DNA 1: TTCGGGAAATAGAAACTC
DNA 2: GAGTTTCTATTTCCCGAA
Q: Does B1 bind (p50-NTD)?
A: binds

B2: half-kBL (21-mer) (dsDNA)
DNA 1: CTTCGGGAAATAGAAACTCTC
DNA 2: GAGAGTTTCTATTTCCCGAAG
Q: Does B2 bind (p50-NTD)?
A: binds

B3: full-kB (14-mer) (dsDNA)
DNA 1: TCGGGAATTCCCGA
DNA 2: TCGGGAATTCCCGA
Q: Which results are given for B3?
A: binding result (p50-NTD): binds; binding result (p50-RHR homodimer): binds
